Measurements from article PMC11853559, “α-Synuclein Iron-Responsive-Element RNA and Iron Regulatory Protein Affinity Is Specifically Reduced by Iron in Parkinson’s Disease”.

How the values were obtained:
Conditions in all cases: protein: commercial; hairpin (stem-loop), melted and reannealed
[1] = molecular target: T1, Iron regulatory protein 1 (IRP1) (UniProt P21399 1-889); assay: fluorescence quenching (intrinsic); 5 °C, no Fe; 20 mM HEPES pH 7.4, 100 mM KCl, 1 mM MgCl2; 50 nM IRP1, 0-200 nM RNA; 15 min; 25 °C (5-30 °C series); Fe2+ 50 uM anaerobic where stated
T1 sequence: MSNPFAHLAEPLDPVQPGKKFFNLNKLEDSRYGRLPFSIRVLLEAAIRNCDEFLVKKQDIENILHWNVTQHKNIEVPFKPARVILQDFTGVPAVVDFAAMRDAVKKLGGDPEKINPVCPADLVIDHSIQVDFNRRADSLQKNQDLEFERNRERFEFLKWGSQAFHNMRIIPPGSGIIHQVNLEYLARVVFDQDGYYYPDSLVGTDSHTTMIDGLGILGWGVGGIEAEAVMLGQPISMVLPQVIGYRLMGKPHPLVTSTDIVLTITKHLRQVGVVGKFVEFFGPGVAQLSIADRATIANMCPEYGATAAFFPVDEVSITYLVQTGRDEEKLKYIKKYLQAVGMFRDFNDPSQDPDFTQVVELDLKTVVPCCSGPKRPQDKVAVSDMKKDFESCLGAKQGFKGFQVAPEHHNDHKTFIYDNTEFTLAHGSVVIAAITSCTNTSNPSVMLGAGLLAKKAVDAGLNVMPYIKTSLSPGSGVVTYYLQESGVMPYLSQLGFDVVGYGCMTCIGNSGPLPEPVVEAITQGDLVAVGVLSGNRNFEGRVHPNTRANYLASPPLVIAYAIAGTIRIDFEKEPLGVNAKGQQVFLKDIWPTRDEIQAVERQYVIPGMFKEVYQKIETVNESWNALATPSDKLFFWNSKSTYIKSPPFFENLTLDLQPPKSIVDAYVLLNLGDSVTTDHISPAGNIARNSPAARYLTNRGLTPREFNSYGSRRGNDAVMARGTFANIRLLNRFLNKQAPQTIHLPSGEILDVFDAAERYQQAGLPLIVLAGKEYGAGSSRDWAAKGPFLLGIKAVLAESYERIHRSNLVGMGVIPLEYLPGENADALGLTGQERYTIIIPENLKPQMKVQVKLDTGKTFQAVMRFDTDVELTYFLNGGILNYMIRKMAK

[2] = molecular target: T1, Iron regulatory protein 1 (IRP1); assay: fluorescence quenching (intrinsic); 10 °C, no Fe; 20 mM HEPES pH 7.4, 100 mM KCl, 1 mM MgCl2; 50 nM IRP1, 0-200 nM RNA; 15 min; 25 °C (5-30 °C series); Fe2+ 50 uM anaerobic where stated
[3] = molecular target: T1, Iron regulatory protein 1 (IRP1); assay: fluorescence quenching (intrinsic); 15 °C, no Fe; 20 mM HEPES pH 7.4, 100 mM KCl, 1 mM MgCl2; 50 nM IRP1, 0-200 nM RNA; 15 min; 25 °C (5-30 °C series); Fe2+ 50 uM anaerobic where stated
[4] = molecular target: T1, Iron regulatory protein 1 (IRP1); assay: fluorescence quenching (intrinsic); 20 °C, no Fe; 20 mM HEPES pH 7.4, 100 mM KCl, 1 mM MgCl2; 50 nM IRP1, 0-200 nM RNA; 15 min; 25 °C (5-30 °C series); Fe2+ 50 uM anaerobic where stated
[5] = molecular target: T1, Iron regulatory protein 1 (IRP1); assay: fluorescence quenching (intrinsic); 25 °C, no Fe; 20 mM HEPES pH 7.4, 100 mM KCl, 1 mM MgCl2; 50 nM IRP1, 0-200 nM RNA; 15 min; 25 °C (5-30 °C series); Fe2+ 50 uM anaerobic where stated
[6] = molecular target: T1, Iron regulatory protein 1 (IRP1); assay: fluorescence quenching (intrinsic); 30 °C, no Fe; 20 mM HEPES pH 7.4, 100 mM KCl, 1 mM MgCl2; 50 nM IRP1, 0-200 nM RNA; 15 min; 25 °C (5-30 °C series); Fe2+ 50 uM anaerobic where stated
[7] = molecular target: T1, Iron regulatory protein 1 (IRP1); assay: fluorescence quenching, Scatchard; 25 °C, no Fe (abstract gives 21.0); 20 mM HEPES pH 7.4, 100 mM KCl, 1 mM MgCl2; 50 nM IRP1, 0-200 nM RNA; 15 min; 25 °C (5-30 °C series); Fe2+ 50 uM anaerobic where stated

## ACUGGGAGUGGCCAUUCGACGACAGUGUGGUGUAAAGGAAUUCAUUAGCC (structured_RNA) [alpha-Syn IRE RNA (SNCA 5'-UTR)]
[1]
  Kd: 13.5 ± 0.6 nM
[2]
  Kd: 21.9 ± 0.8 nM
[3]
  Kd: 27.8 ± 1.2 nM
[4]
  Kd: 38.9 ± 1.5 nM
[5]
  Kd: 47.6 ± 1.7 nM
[6]
  Kd: 63.8 ± 3.2 nM
[7]
  Ka: 20.8 10^6 M-1
